Positions count from the first letter of the chain named. In names and notes the source's numbering stands.
B1: BST2 ectodomain (residues 47 to 159) WT (domain or fragment, human, UniProt Q10589 47-159, looked up)
chain: KANSEACRDGLRAVMECRNVTHLLQQELTEAQKGFQDVEAQAATCNHTVMALMASLDAEKAQGQKKVEELEGEITTLNHKLQDASAEVERLRRENQVLSVRIADKKYYPSSQD
B2: BST2 ectodomain (residues 47 to 159) T90P (domain or fragment, human, UniProt Q10589 47-159, looked up)
chain: B1 chain with T44P
B3: BST2 ectodomain (residues 47 to 159) R136A (domain or fragment, human, UniProt Q10589 47-159, looked up)
chain: B1 chain with R90A
B4: BST2 ectodomain (residues 47 to 159) Q87H (domain or fragment, human, UniProt Q10589 47-159, looked up)
chain: B1 chain with Q41H
B5: BST2 ectodomain (residues 47 to 159) L70D (domain or fragment, human, UniProt Q10589 47-159, looked up)
chain: B1 chain with L24D
B6: BST2 ectodomain (residues 47 to 159) D129A (domain or fragment, human, UniProt Q10589 47-159, looked up)
chain: B1 chain with D83A
B7: BST2 ectodomain (residues 47 to 159) L127C (domain or fragment, human, UniProt Q10589 47-159, looked up)
chain: B1 chain with L81C
B8: GST-BST2 (80-147) (domain or fragment, human, UniProt Q10589 80-147, looked up)
chain: GFQDVEAQAATCNHTVMALMASLDAEKAQGQKKVEELEGEITTLNHKLQDASAEVERLRRENQVLSVR

Columns and labels:
bacILT7 24-223 = bacILT7 24-223 (human, UniProt P59901 24-223, fluorescent label (Protein Labeling Kit RED-NHS)); experiment: MST
bacILT7 24-223, sequence (P59901 24-223): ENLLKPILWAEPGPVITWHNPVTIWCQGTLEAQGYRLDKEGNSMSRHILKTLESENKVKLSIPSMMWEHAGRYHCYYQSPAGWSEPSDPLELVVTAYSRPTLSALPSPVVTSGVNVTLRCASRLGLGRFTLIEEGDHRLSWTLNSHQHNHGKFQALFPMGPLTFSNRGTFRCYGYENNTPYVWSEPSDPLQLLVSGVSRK

cross-linking = molecular target: the molecule itself; experiment: cross-linking
bacILT7 24-435 = bacILT7 24-435 (human, UniProt P59901 24-435); experiment: SPR
bacILT7 24-435, sequence (P59901 24-435): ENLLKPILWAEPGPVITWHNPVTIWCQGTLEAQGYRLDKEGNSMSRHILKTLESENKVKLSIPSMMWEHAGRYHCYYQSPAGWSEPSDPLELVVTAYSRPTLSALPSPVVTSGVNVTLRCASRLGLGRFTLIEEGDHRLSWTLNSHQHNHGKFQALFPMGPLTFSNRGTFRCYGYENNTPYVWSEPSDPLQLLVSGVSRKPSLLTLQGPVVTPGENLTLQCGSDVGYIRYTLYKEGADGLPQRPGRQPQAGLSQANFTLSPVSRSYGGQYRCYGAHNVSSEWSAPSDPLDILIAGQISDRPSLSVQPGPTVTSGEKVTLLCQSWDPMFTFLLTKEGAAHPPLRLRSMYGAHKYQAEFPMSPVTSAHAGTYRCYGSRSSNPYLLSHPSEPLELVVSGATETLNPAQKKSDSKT

Row | Binder | Kd (bacILT7 24-223) [µM] | also measured
1 | B1 | 2.45 ± 0.3 | –
2 | B2 | 4.49 ± 0.9 | –
3 | B3 | – | stoichiometry N (cross-linking): 2
4 | B4 | 5.06 ± 1.1 | –
5 | B5 | 5.55 ± 1 | –
6 | B6 | – | stoichiometry N (cross-linking): 2
7 | B7 | 6.45 ± 1.2 | –
8 | B8 | – | Kd (bacILT7 24-435): 2.62 µM; koff (bacILT7 24-435): 0.00238 s⁻¹; kon (bacILT7 24-435): 908 M⁻¹ s⁻¹

Source: doi:10.1101/557116 (bioRxiv, 2019)
